According to PMC4078746 (Current biology : CB, 2010):

Molecular target: the molecule itself
Test: SEC

B1: Robo2^R1I1+2 Ig1-5 fragment (Ig1+2 of Robo, Ig3-5 of Robo2) (domain or fragment)
chain: not shown
stoichiometry N: 2
